Source: patent US20250108100A1, “C-TERMINAL FRAGMENT OF APOLIPOPROTEIN E AND APPLICATION THEREOF IN INHIBITING y-SECRETASE ACTIVITY” (SYNPHATEC (SHANGHAI) BIOPHARMACEUTICAL TECHNOLOGY CO., LTD., priority 2022, published 2025)

Target: purified human γ-secretase (NCT-V5-6×His; FLAG-PEN2; APH; PS1) (human) (UniProt Q92542)
Assay: cell-based or functional assay

Sequence of ApoE2-3×FLAG (purified) (P02649 19-317 R176C): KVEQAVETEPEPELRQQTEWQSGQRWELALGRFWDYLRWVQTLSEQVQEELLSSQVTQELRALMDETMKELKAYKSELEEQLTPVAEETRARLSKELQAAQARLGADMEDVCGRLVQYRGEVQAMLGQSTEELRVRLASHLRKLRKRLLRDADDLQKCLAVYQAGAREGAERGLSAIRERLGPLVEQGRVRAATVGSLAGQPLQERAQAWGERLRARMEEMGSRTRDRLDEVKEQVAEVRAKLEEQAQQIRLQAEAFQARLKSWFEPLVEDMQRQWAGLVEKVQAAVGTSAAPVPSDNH

IC50 for Aβ production on co-incubation of purified β-CTF and γ-secretase with a concentration series of ApoE2 (ELISA): 1200 nM
half-inhibitory concentration (IC50) for Aβ40 production from purified β-CTF by purified γ-secretase (ELISA): 1200 nM
Substance: ApoE2-3×FLAG (purified) (from UniProt P02649 19-317)
